{"source": "the DeepSol protein solubility set"}
{"experiment": "soluble on expression in E. coli; label from the status in PepcDB or PDB records"}
{"sequence": "MGSDKIHHHHHHMYEENIYIKNSEYEFDNNLKQLASYLNIPVSIVRPYKEDLTLYQYKKGQVIYHSTDQIKFVYFLVNGCILHESSNITGDNYLRLSKDENIFPMNFIFNETPAPYEICTALTDCKILTLPKDLLEYLCRKHNEIFESLFKKLNETIQFQVEYIMALRANSAKERIERILQILCLSIGDDNGEFYELKQIMTVQLISNLSGLNRKTTGEIIRELKTENIIYQDKRNWIIKK", "soluble on expression in E. coli": "not soluble"}
{"sequence": "MSMNRQEISDLCVKSLEGRMVGTEAQNIENGNAFYRYFFTNFPDLRVYFKGAEKYTADDVKKSERFDKQGQRILLACHLLANVYTNEEVFKGYVRETINRHRIYKMDPALWMAFFTVFTGYLESVGSLNDQQKAAWMALGKEFNAESQTHLKNSNLPHV", "soluble on expression in E. coli": "soluble"}
{"sequence": "MEIFQKAKAVRLRSHHDKYLVADEDEESVTQERNGSAGAAKWTVEIIPGSTNLIRLKSAYGKYLTASNKPFLLGATGKKVLQTKPSRLDSSLAWEPIRDSALVKLKTRYGNFLRGNGGLPPWRNSVTHDIPHRSATQEWVLWHIDVVEILPANANSDHHHQHLQLQQPPSPLHHSDSLDFTPGSPSRSDRFFRQESTDSLAVGSPPKSEGRVIYYHVADDDDDVEDDSVEVSSFTFKGNGVEELTMRLKEESNVEDVIVCTRSPLNGKLFPLRLQLPPNNADMTVVLVPKSSKSESLLVLISSQVVALSLMFSVFLDLTVAEKFIK", "soluble on expression in E. coli": "not soluble"}
{"sequence": "MIKAIIFDVDETLVYYEGYSLREWYEKVGLPAMKELGVIVDWEIFRKMARGELPRSYVEKFQINHVKFWKALDEANRKYREELLKEGKVHTFKDVEALKEIKNLGIKLAAVSNASQDNTELVLRAFDLLKYFDVVYGKDYTYLDGVKPNPYLINKALKALNVEPKEAILVGDSELDIIAGKRAKLRVVQIVREKRVEGADVYINSLWELVDKLKTGEL", "soluble on expression in E. coli": "soluble"}
{"sequence": "MNSMEHLLKQAIKLRKEKKYAQSKEILIGLTNFTRDAEVLYQCAWIHDVMGLETEAMPYYEQAIANGLEGESLCGAYIGLGSTYRCIGEYDKAITVLETGLQQFPGNDVMKVFLSLAKFNVNDHESAMKLLLETVVKLEHHHHHH", "soluble on expression in E. coli": "soluble"}
{"sequence": "MGSDKIHHHHHHMELKKLMEHISIIPDYRQTWKVEHKLSDILLLTICAVISGAEGWEDIEDFGETHLDFLKQYGDFENGIPVHDTIARVVSCISPAKFHECFINWMRDCHSSDDKDVIAIDGKTLRHSYDKSRRRGAIHVISAFSTMHSLVIGQIKTDEKSNEITAIPELLNMLDIKGKIITTDAMGCQKDIAEKIQKQGGDYLFAVKGTQGRLNKAFEEKFPLKELNNPEHDSYAISEKSHGREEIRLHIVCDVPDELIDFTFEWKGLKKLCVAVSFRSIIAEQKKEPEMTVRYYISSADLTAEKFATAIRNHWHVENKLHWRLDVVMNEDDCKIRRGNAAELFSGIRHIAINILTNDKVFKAGLRRKMRKAAMDRNYLASVLAGSGLS", "soluble on expression in E. coli": "not soluble"}
{"sequence": "SIEKIWAREILDSRGNPTVEVDLYTAKGLFRAAVPSGASTGIYEALELRDGDKQRYLGKGVLKAVDHINSTIAPALISSGLSVVEQEKLDNLMLELDGTENKSKFGANAILGVSLAVCKAGAAERELPLYRHIAQLAGNSDLILPVPAFNVINGGSHAGNKLAMQEFMILPVGAESFRDAMRLGAEVYHTLKGVIKDKYGKDATNVGDEGGFAPNILENSEALELVKEAIDKAGYTEKIVIGMDVAASEFYRDGKYDLDFKSPTDPSRYITGDQLGALYQDFVRDYPVVSIEDPFDQDDWAAWSKFTANVGIQIVGDDLTVTNPKRIERAVEEKACNCLLLKVNQIGSVTEAIQACKLAQENGWGVMVSHRSGETEDTFIADLVVGLCTGQIKTGAPCRSERLAKYNQLMRIEEELGDEARFAGHNFRNPSVLHHHHHH", "soluble on expression in E. coli": "soluble"}
{"sequence": "MKKAVVVFSGGQDSTTCLVQALKEFDEVHAITFDYGQRHKLEIEVAQQLAKQLGVTAHKVMDVSLLNELAISSLTRDDIPVSHELQANGLPNSFVPGRNILFLTLAGIYAYQIGATTVITGVCETDFSGYPDCRDEFVQAMNQALAKGMDLPLMIRTPLMWLNKAETWALADQLGALDLVRHQTLTCYNGLIGDGCGECPACGLRQAGLKAYLDNRDLIMSALKSKQSAAH", "soluble on expression in E. coli": "not soluble"}
{"sequence": "MSLKITQIQAQNKNKNRRNVFVDGSYEFSCDMEIILKYKLKEGLEIDRTKLLQVIDQSKEEFAFRLALNYLSFKSRTSFEIYTYLLKKEYEEKIIEKVIEKLKYYRYVDDNQYVLNYIKTALAEGKKGKDRVQSDLINKKIPQDMIESHMHLFSCETNLEIAKELSNKYFKQNAHLPFNQFKNKLSQFLMRKGFNWEIINTCLNILEQDSEVQSHIDSNKELYVKEAIKLGNKYFVKYKAKETNPYLVEHKVKSHLYQKGYDKDTINLAFKKIIENSEGHHHHHH", "soluble on expression in E. coli": "not soluble"}
